# In publication PMC11182015, “Cytosolic RNA binding of the mitochondrial TCA cycle enzyme malate dehydrogenase”:
# T1: MDH2 preprotein (malate dehydrogenase 2, mitochondrial), with N-terminal MTS (Homo sapiens, UniProt P40926 1-338)
# T1 sequence: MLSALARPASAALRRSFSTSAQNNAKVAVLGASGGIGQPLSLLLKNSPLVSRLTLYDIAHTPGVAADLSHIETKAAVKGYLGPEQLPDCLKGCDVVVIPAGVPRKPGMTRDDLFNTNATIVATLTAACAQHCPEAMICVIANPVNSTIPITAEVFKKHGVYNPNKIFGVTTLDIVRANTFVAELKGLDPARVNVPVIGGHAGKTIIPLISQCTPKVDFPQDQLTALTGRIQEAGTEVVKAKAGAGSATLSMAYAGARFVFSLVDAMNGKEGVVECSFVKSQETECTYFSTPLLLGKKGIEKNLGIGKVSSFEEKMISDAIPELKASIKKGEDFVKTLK
# Biological target: T1, MDH2 preprotein (malate dehydrogenase …)
# Test: EMSA; RNA 10 nM; EMSA: 10 mM Tris-HCl pH 7.5, 150 mM NaCl, 20% glycerol, 0.5 mM DTT, 5 mM MgCl2, 0.01 ug/uL BSA, 25 C 20 min; 10 nM Cy5-RNA; native 4-15% Tris-glycine gel
# Details: protein: recombinant; tags: C-terminal Strep-II; label: Cy5
binder,measurement,value
AUAUUUAGCUCAGGCCCGUGGCGCC (ssRNA) [RPS23 5'-UTR control probe],Kd,1500 nM
